{"source": "paper PMC4434323"}
{"target": "T1, daf-12 (F11A1.3) (Caenorhabditis elegans) (UniProt G5EFF5)", "T1 sequence": "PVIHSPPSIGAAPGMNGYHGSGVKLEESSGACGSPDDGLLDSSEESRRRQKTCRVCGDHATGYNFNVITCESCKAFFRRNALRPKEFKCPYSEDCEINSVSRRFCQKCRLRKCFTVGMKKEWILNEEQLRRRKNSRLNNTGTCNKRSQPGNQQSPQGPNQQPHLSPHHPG"}
{"sequence": "AAGTGCAT (double strand) [8-mer AAGTGCAT]", "binding signal (PBM E-score (-0.5 to 0.5))": 0.495}
{"sequence": "CAAGTGCA (double strand) [8-mer CAAGTGCA]", "binding signal (PBM E-score (-0.5 to 0.5))": 0.493}
{"sequence": "TAAGTACA (double strand) [8-mer TAAGTACA]", "binding signal (PBM E-score (-0.5 to 0.5))": 0.492}
{"sequence": "TAAGTGCA (double strand) [8-mer TAAGTGCA]", "binding signal (PBM E-score (-0.5 to 0.5))": 0.496}
{"target": "T2, nhr-142 (F44E7.8) (Caenorhabditis elegans) (UniProt J7SF93)", "T2 sequence": "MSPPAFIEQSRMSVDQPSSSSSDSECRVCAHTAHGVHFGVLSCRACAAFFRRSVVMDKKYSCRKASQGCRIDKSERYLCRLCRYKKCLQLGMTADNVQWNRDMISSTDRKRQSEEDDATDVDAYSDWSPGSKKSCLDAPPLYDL"}
{"sequence": "CAGTCACA (double strand) [8-mer CAGTCACA]", "binding signal (PBM E-score (-0.5 to 0.5))": 0.483}
{"sequence": "GAGTCACA (double strand) [8-mer GAGTCACA]", "binding signal (PBM E-score (-0.5 to 0.5))": 0.485}
{"sequence": "GTCATAAA (double strand) [8-mer GTCATAAA]", "binding signal (PBM E-score (-0.5 to 0.5))": 0.484}
{"target": "T3, atf-5 (T04C10.4) (Caenorhabditis elegans) (UniProt Q22156)", "T3 sequence": "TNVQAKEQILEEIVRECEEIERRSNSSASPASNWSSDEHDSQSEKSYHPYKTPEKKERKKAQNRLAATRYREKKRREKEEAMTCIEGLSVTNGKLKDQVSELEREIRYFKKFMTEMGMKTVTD"}
{"sequence": "AATGACGT (double strand) [8-mer AATGACGT]", "binding signal (PBM E-score (-0.5 to 0.5))": 0.459}
{"sequence": "CGTCAGCA (double strand) [8-mer CGTCAGCA]", "binding signal (PBM E-score (-0.5 to 0.5))": 0.457}
{"sequence": "CGTCAGCC (double strand) [8-mer CGTCAGCC]", "binding signal (PBM E-score (-0.5 to 0.5))": 0.491}
{"sequence": "CGTCATCC (double strand) [8-mer CGTCATCC]", "binding signal (PBM E-score (-0.5 to 0.5))": 0.487}
{"target": "T4, nhr-3 (H01A20.1) (Caenorhabditis elegans) (UniProt Q9XTJ4)", "T4 sequence": "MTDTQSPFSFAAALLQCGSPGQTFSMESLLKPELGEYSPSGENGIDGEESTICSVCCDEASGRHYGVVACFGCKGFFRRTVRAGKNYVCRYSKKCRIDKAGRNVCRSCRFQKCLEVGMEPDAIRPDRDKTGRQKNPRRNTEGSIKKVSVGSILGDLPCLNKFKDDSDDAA"}
{"sequence": "AAGATCAC (double strand) [8-mer AAGATCAC]", "binding signal (PBM E-score (-0.5 to 0.5))": 0.471}
{"sequence": "ACAGATCA (double strand) [8-mer ACAGATCA]", "binding signal (PBM E-score (-0.5 to 0.5))": 0.456}
{"sequence": "AGGTCAAC (double strand) [8-mer AGGTCAAC]", "binding signal (PBM E-score (-0.5 to 0.5))": 0.465}
{"sequence": "ATAGATCA (double strand) [8-mer ATAGATCA]", "binding signal (PBM E-score (-0.5 to 0.5))": 0.466}
{"sequence": "TAAGATCA (double strand) [8-mer TAAGATCA]", "binding signal (PBM E-score (-0.5 to 0.5))": 0.477}
{"target": "T5, nhr-46 (C45E5.6) (Caenorhabditis elegans) (UniProt Q95QR2)", "T5 sequence": "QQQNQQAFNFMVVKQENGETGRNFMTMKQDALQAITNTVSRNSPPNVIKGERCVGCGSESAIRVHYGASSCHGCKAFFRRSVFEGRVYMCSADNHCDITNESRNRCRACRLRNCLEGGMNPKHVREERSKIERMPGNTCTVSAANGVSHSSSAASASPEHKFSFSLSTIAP"}
{"sequence": "AAGATCAT (double strand) [8-mer AAGATCAT]", "binding signal (PBM E-score (-0.5 to 0.5))": 0.476}
{"sequence": "AGATCAAA (double strand) [8-mer AGATCAAA]", "binding signal (PBM E-score (-0.5 to 0.5))": 0.473}
{"sequence": "AGATCAAG (double strand) [8-mer AGATCAAG]", "binding signal (PBM E-score (-0.5 to 0.5))": 0.466}
{"sequence": "ATGATCTC (double strand) [8-mer ATGATCTC]", "binding signal (PBM E-score (-0.5 to 0.5))": 0.46}
{"sequence": "TAAGATCA (double strand) [8-mer TAAGATCA]", "binding signal (PBM E-score (-0.5 to 0.5))": 0.474}
{"sequence": "TAGATCAA (double strand) [8-mer TAGATCAA]", "binding signal (PBM E-score (-0.5 to 0.5))": 0.465}
{"target": "T6, unc-120 (D1081.2) (Caenorhabditis elegans) (UniProt Q18955)", "T6 sequence": "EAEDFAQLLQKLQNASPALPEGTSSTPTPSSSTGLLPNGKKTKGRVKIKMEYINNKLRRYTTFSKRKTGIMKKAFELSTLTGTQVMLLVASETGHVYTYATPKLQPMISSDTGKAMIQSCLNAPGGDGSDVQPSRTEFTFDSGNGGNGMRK"}
{"sequence": "AAATAAGG (double strand) [8-mer AAATAAGG]", "binding signal (PBM E-score (-0.5 to 0.5))": 0.464}
{"sequence": "AAATATGG (double strand) [8-mer AAATATGG]", "binding signal (PBM E-score (-0.5 to 0.5))": 0.474}
{"sequence": "ACCTTATA (double strand) [8-mer ACCTTATA]", "binding signal (PBM E-score (-0.5 to 0.5))": 0.466}
{"sequence": "ATATAAGG (double strand) [8-mer ATATAAGG]", "binding signal (PBM E-score (-0.5 to 0.5))": 0.478}
{"sequence": "ATATATGG (double strand) [8-mer ATATATGG]", "binding signal (PBM E-score (-0.5 to 0.5))": 0.486}
{"sequence": "CATATAAG (double strand) [8-mer CATATAAG]", "binding signal (PBM E-score (-0.5 to 0.5))": 0.466}
{"sequence": "CATATATG (double strand) [8-mer CATATATG]", "binding signal (PBM E-score (-0.5 to 0.5))": 0.468}
{"sequence": "CCATAAAA (double strand) [8-mer CCATAAAA]", "binding signal (PBM E-score (-0.5 to 0.5))": 0.459}
{"sequence": "CCATATAA (double strand) [8-mer CCATATAA]", "binding signal (PBM E-score (-0.5 to 0.5))": 0.465}
{"sequence": "CCTTATAA (double strand) [8-mer CCTTATAA]", "binding signal (PBM E-score (-0.5 to 0.5))": 0.474}
{"sequence": "GCCTTATA (double strand) [8-mer GCCTTATA]", "binding signal (PBM E-score (-0.5 to 0.5))": 0.47}
{"sequence": "TACCATAA (double strand) [8-mer TACCATAA]", "binding signal (PBM E-score (-0.5 to 0.5))": 0.462}
{"sequence": "TATAAGGA (double strand) [8-mer TATAAGGA]", "binding signal (PBM E-score (-0.5 to 0.5))": 0.472}
{"sequence": "TATATGGA (double strand) [8-mer TATATGGA]", "binding signal (PBM E-score (-0.5 to 0.5))": 0.478}
{"target": "atf-7 (C07G2.2) (Caenorhabditis elegans) (UniProt Q86MD3)", "sequence (Q86MD3 339-508)": "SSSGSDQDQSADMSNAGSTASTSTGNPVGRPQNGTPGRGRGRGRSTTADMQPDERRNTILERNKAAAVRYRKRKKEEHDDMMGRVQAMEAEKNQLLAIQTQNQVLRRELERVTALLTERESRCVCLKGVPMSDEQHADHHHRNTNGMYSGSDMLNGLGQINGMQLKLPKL"}
{"sequence": "AATGACGT (double strand) [8-mer AATGACGT]", "binding signal (PBM E-score (-0.5 to 0.5))": 0.497}
